Measurements as given in US20260234655A1, “Nuclear Targeted DNA Delivery and Compositions for Use in Practicing the Same” (Seawolf Therapeutics, Inc., priority 2022, published 2026).

Tests used:
[1] = tested on: growth-arrested HepG2 cells; assay: Number of TFBS repeats in the DTS (TetO, UAS), co-transfection with TetR or Gal4 mRNA in growth-arrested HepG2 cells; GFP intensity; format: cell-based; conditions: for gene expression over DNA alone on co-transfection with Gal4 mRNA: 12 h
Protocol: Co-transfection of DNA and mRNA into HepG2 cells. HepG2 cells were purchased from ATCC and grown in complete media (EMEM+10% fetal bovine serum, ATCC). For co-transfection experiments, cells were seeded at confluence onto collagen coated 384-well plates and cultured for 48 hours in complete media followed by 48 hours in complete media supplemented with […] aphidicolin to prevent cell division. After the outgrowth period, cells were transfected using Lipofectamine3000 (Invitrogen) transfection reagent according to the manufacturer's instructions. RNA and DNA were independently complexed with Lipofectamine3000 in Opti-MEM I (Gibco) for 15 minutes. RNA and DNA complexes were then mixed, followed by 1:10 dilution into complete media supplemented with 0.75 μM aphidicolin. Media was aspirated from the plated HepG2 cells and replaced with the transfection mix. DNA was transfected from 17.5 ng to 4.38 ng per well. mRNA was transfected from 70 ng to 0.07 ng per well. Cells were live-imaged using a 4× objective with a GFP filter set and brightfield at 3-hour intervals for 72 hours using a Cytation5 automated microscope (Agilent) attached to a BioSpa8 automated incubator (Agilent). Gen5IPrime (Agilent) image analysis software was used to quantify the number of GFP cells and GFP Intensity per well.
In this study, DNAs were engineered to comprise DTSs having different numbers of TFBS repeats for TetR or Gal4, and the impact of multiple sequences assessed in vitro by co-transfection of mRNA encoding TetR or Gal4 NTF. Growth-arrested HepG2 cells were co-transfected with mRNA encoding the NTF protein along with DNA comprising a cognate DTS and a GFP expression cassette. Each NTF mRNA was paired with a cognate DNA in the co-transfection, where the cognate DNA comprised a DTS with varying numbers of cognate TFBS repeats. For example, the TetR mRNA was paired with DNAs comprising DTSs with 2, 3, 4, 5, 6, or 7 repeats of a TetR TFBS (e.g., TetO). Twenty-four hours after transfection, GFP expression was assessed by measuring GFP fluorescence intensity.
The increase in gene expression appeared to increase with the number of TetO repeats in the DTS, with 7 repeats producing an increase in GFP expression greater than 10-fold at the highest amount of RNA (e.g., 17.5 ng RNA) compared to DNA alone (FIG. 16A).
The Gal4 mRNA was paired with DNAs comprising DTSs with 1, 2, 3, 4, 5, 7, or 10 repeats of a Gal4 TFBS (e.g., UAS). Twelve hours after transfection, GFP expression was assessed by measuring GFP fluorescence intensity. […] The increase in gene expression appeared to increase with the number of UAS repeats in the DTS up to 5 repeats, while the increase in gene expression appeared saturable as 5, 7, and 10 repeats performed similarly (FIG. 16B). Co-transfection of Gal4 mRNA and DNA comprising a DTS of 5, 7, or 10 repeats produced an increase in GFP expression greater than 10-fold at the highest amount of RNA (e.g., 17.5 ng RNA) compared to DNA alone (e.g., 0 ng RNA) in HepG2 cells (FIG. 16B).

[2] = tested on: growth-arrested HepG2 cells; assay: Arrayed DTS screen in growth-arrested HepG2 cells; GFP intensity by live-cell imaging; format: cell-based; conditions: 24 h post-transfection
Excerpt: DNA construct design. Each DTS was constructed in pentameric repeat using a 15 bp spacer between each TFBS. The DTS was appended just 5′ to the promoter, effectively in a putative enhancer region. Various promoters were employed in these constructs, including CBh (a variant of the CAG promoter) and TTR. Several reporter genes were employed in these constructs, including enhanced Green Fluorescent Protein (eGFP). The polyadenylation (polyA) signal is a BGH-PolyA sequence. For pooled screening, unique molecular identifiers (UMIs; also known as barcodes) were used to distinguish between DNA constructs in a pool, and the UMIs were appended to the 3′UTR immediately downstream of the stop codon of eGFP, just preceding the BGH-PolyA sequence.
Cell culture. HepG2 cells were plated into a 384-well plate and grown for 48 hours to achieve confluency. Cell media was removed and replaced with culture media supplemented with Aphidicolin (1 uM) using EL406 automated plate washer and dispenser, then cells were transfected with DTS containing 17.5 ng plasmids using Lipofectamine 3000 without supplement. Expression of GFP was monitored using a Biotek Cytation 5 cell imaging reader over 24 hours to evaluate DTS activity. Total GFP per well was calculated and averaged over 4 well replicates.
pDNAs containing various DTSs (Table 12) were transfected individually into growth-arrested HepG2 cells. Cell growth was inhibited to prevent dissolution of the nuclear envelope. GFP expression was quantified over a period of 24 h post-transfection by measuring GFP intensity using quantitative live-cell imaging. Statistical analysis and hierarchical clustering methods were used to easily differentiate strong DTSs from weak DTSs in a heatmap (FIG. 5A). […] DTS.203: CREB1, PPARA, ONECUT1, HNF4A, PPARA. DTS.233: HNF1A, NR113, PPARA, HNF1A, PPARA. DTS.276: FOXA1, HNF4A, HNF1A, HNF4A, HNF1A.
For the arrayed screen, pDNAs containing various DTSs were transfected individually into growth-arrested HepG2 cells. For the pooled screen, pDNAs containing various DTSs were pooled together and transfected as a pool into growth-arrested HepG2 cells. Cell growth was inhibited to prevent dissolution of the nuclear envelope, which improves the accuracy of measuring DTS activity related to nuclear translocation. For the arrayed screen, GFP protein expression was quantified 24 h post-transfection by measuring GFP intensity using quantitative live-cell imaging. For the pooled screen, mRNA abundance for each DTS variant was determined using RNA-seq by deconvoluting the read counts for each UMI. A strong correlation between protein expression in the arrayed screen and mRNA expression in the pooled screen was observed (FIG. 6). […] Pooled screening can thus be used to quickly and reliably identify strong DTSs.

Molecule | gene expression over DNA alone on co-transfection with Gal4 mRNA ([1]; growth-arrested HepG2 cells) | further results
DTS with 4 repeats of UAS: DNA with GFP cassette and DTS of 4 UAS repeats (nucleic acid, DNA nuclear targeting sequence within DNA carrying a GFP cassette, further chemistry not given here, DNA with GFP cassette and DTS of 4 UAS repeats) DNA: CGGAGGACTGTCCTCCGTGAGTCCTAGCGGAGGACTGTCCTCCGTCTTCACAGGCGGAGGACTGTCCTCCGTAGGGTTCCTCGGAGGACTGTCCTCCG | did substantially increase gene expression | –
DTS.276: combinatorial DTS: FOXA1, HNF4A, HNF1A, HNF4A, HNF1A binding sites (nucleic acid) DNA: TGTTTACTTTAGATTACTACTGATATCGAGCGCAGGTCAAAGGTCACCTGCAGATTACTACTGATAGGTTAATAATTAACAGATTACTACTGATATCGAGCGCTGGGCAAAGGTCACCTGCAGATTACTACTGATAAGTATGGTTAATGATCTACAG | – | GFP intensity / gene expression in arrayed screen compared to Spacer negative control [2]: performed equivalently or better than NFKB
DTS with 10 repeats of UAS: DNA with GFP cassette and DTS of 10 UAS repeats (nucleic acid) DNA: CGGAGGACTGTCCTCCGTGAGTCCTAGCGGAGGACTGTCCTCCGTCTTCACAGGCGGAGGACTGTCCTCCGTAGGGTTCCTCGGAGGACTGTCCTCCGACACTAGAGTCGGAGGACTGTCCTCCGGATAGTATCACGGAGGACTGTCCTCCGAATGGACTAACGGAGGACTGTCCTCCGAGCAAACGAACGGAGGACTGTCCTCCGTACACCGATCCGGAGGACTGTCCTCCGGCGCTCGGCACGGAGGACTGTCCTCCG | did substantially increase gene expression | –
DTS with 5 repeats of UAS: DNA with GFP cassette and DTS of 5 UAS repeats (nucleic acid, DNA nuclear targeting sequence within DNA carrying a GFP cassette, further chemistry not given here, DNA with GFP cassette and DTS of 5 UAS repeats) DNA: CGGAGGACTGTCCTCCGTGAGTCCTAGCGGAGGACTGTCCTCCGTCTTCACAGGCGGAGGACTGTCCTCCGTAGGGTTCCTCGGAGGACTGTCCTCCGACACTAGAGTCGGAGGACTGTCCTCCG | did substantially increase gene expression | –
DTS with 7 repeats of UAS: DNA with GFP cassette and DTS of 7 UAS repeats (nucleic acid) DNA: CGGAGGACTGTCCTCCGTGAGTCCTAGCGGAGGACTGTCCTCCGTCTTCACAGGCGGAGGACTGTCCTCCGTAGGGTTCCTCGGAGGACTGTCCTCCGACACTAGAGTCGGAGGACTGTCCTCCGGATAGTATCACGGAGGACTGTCCTCCGAGCAAACGAACGGAGGACTGTCCTCCG | did substantially increase gene expression | –
DTS.203: combinatorial DTS: CREB1, PPARA, ONECUT1, HNF4A, PPARA binding sites (nucleic acid) DNA: CTGACGTCAGAGATTACTACTGATACAAAACTAGGTCAAAGGTCAAGATTACTACTGATAGTCTGCTAAGTCAATAATCAGAATAGATTACTACTGATACGCCCCAGCACACATGATCAGAAGATTACTACTGATAAGGTCAAAGGTCA | – | GFP intensity / gene expression in arrayed screen compared to Spacer negative control [2]: performed equivalently or better than NFKB
DTS with 7 repeats of TetO: DNA with GFP cassette and DTS of 7 TetO repeats (nucleic acid) DNA: CTCGAGTTTACTCCCTATCAGTGATAGAGAACGTATGTCGAGTTTACTCCCTATCAGTGATAGAGAACGATGTCGAGTTTACTCCCTATCAGTGATAGAGAACGTATGTCGAGTTTACTCCCTATCAGTGATAGAGAACGTATGTCGAGTTTACTCCCTATCAGTGATAGAGAACGTATGTCGAGTTTATCCCTATCAGTGATAGAGAACGTATGTCGAGTTTACTCCCTATCAGTGATAGAGAACGTATGTCGAGGTAGGCGTGTACGGTGGGAGGCCTATATAAGCAGAGCTCGTTTAGTGAACCGTCAGATCGCCTGGAGAATTCA | – | gene expression over DNA alone on co-transfection with TetR mRNA ([1]; growth-arrested HepG2 cells, 24 h): did substantially increase gene expression; increase in GFP expression compared to DNA alone on co-transfection with TetR mRNA ([1]; highest amount of RNA (17.5 ng RNA), 24 h): greater than 10 fold
DTS with 3 repeats of UAS: DNA with GFP cassette and DTS of 3 UAS repeats (nucleic acid, DNA nuclear targeting sequence within DNA carrying a GFP cassette, further chemistry not given here, DNA with GFP cassette and DTS of 3 UAS repeats) DNA: CGGAGGACTGTCCTCCGTGAGTCCTAGCGGAGGACTGTCCTCCGTCTTCACAGGCGGAGGACTGTCCTCCG | did substantially increase gene expression | –
